Experimental findings from patent US20190085033A1 (published 2019) are described below.

What is called Kd is the concentration at which binding is half-saturated.

For the assay, the target named is BG505-gp120. Briefly: SPR. For orientation: SPR reads the build-up and loss of mass on a sensor chip optically.

B1: 4025 (antibody, V domains shown)
VH: EVQLVQSGAEVKKPGESLKISCKASGYSFSSYWIAWVRQMPGKGLEWMGFIYPADSDTRYSPSFQGQGTISADKSISTAYLQWSSLKASDTAMYYCAILGFWGANRGGGGMDVWGQGTTVIVSS
VL: SYELTQPPSVSVSPGQTARITCSGDALPEKYAYWYQQKSGQAPVLIIYEDSKRPSGIPERFSGSRSGTMATLTISGAQVDDEADYYCYSTNSGGTFFVFGTGTKVTVLG
B1 came in with a dissociation constant Kd of 75 nM.
